# Source: the RNAGym collection of RNA variant scans (doi:10.1073/pnas.2313332121)
# B1: TPR t1 (parent)
# chain: GACCAAUCUGCCCUCAGAGCUCGAGAACAUCUUCGGAUGCAGAGGAGGCAGGCUUCGGUGGCGCGAUAGCGCCAACGUCCUCAACCUCCAAUGCAUCCCACCACAUGAUGAUGCCUGAAGAGCCUUGGUUUUUUG
# Variants of: B1
# Test: polymerase ribozyme fitness, log enrichment relative to wild type (log ratio); higher = more active; in vitro selection for triplet polymerase activity
# Method in brief: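 The heterodimeric triplet polymerase ribozyme's subunits were each mutagenized into PCR-built libraries and transcribed. Every library was selected once, in triplicate, by annealing with a biotinylated primer, the partner subunit and triplets, incubating frozen at −7 °C, gel-excising extended constructs, capturing on streptavidin beads and running RT-PCR. Input and output libraries were Illumina-sequenced, with genotypes kept only at ≥10 input reads and ≥1 read per output. Fitness, from inverse-variance-weighted replicate averages, is the base-2 logarithm of genotype enrichment over wild-type enrichment.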
row,Variant,polymerase ribozyme fitness (log ratio)
1,A41C G52C C73G,-2.96
2,A6U G45A A50U G113C,-5.5
3,C4U A43C G45A A74U C124A,-2.29
4,G63U C124A,0.583
5,A16U C89G U130C,-2.31
6,C15A U133G,-3.68
7,A37C G48A A68G U96A,-3.13
8,A75G G128A,-1.5
9,G48A G113C,-2.26
10,C15U A18U C31A G39U U54A C72U C114U C115G,-6.25
11,A41U C88U,-1.27
12,G48U G63A,-1.96
13,C62A C123G,0.748
14,U87A C89A A91C A95G G113C,-2.9
15,G45A A68G U112A,-4.04
16,C53G C72G,0.577
17,C8U C28U C73U,-1.68
18,G42U C53G G69U,-0.375
19,C34A C73U A74U,-3.25
20,G120A G127U,0.172
21,U9C U14A G36C,-1.95

row,Variant,polymerase ribozyme fitness (log ratio)
1,A5G C82G,-0.685
2,G63A A100U,-1.77
3,C114G C124A G135A,-0.373
4,C82G U125A,-0.86
5,C40U G47C C53U,-3.49
6,C34A A119G,-2.03
7,A18G C73A U87G,-3.89
8,C70U C123U,0.707
9,A5U C12G C49G U81A G127A,-4.64
10,A46U G48A G52C G61A G120A,-1.18
11,C56U C62U C123A,0.0354
12,U7G C40G C56U G69U,-2.3
13,C11A G39U G71A,-2.63
14,C76U A118G,-0.0957
15,G61U A100C U133G,-1.29
16,A2C A18U C124A,-3.22
17,C11G G44A,-0.407
18,A41G G45A A83C,-1.53
19,A6G U9C,0.178
20,G45A C73G C85A,-2.3
21,A41U U116C C124U U130A,-3.9

row,Variant,polymerase ribozyme fitness (log ratio)
1,C4A G71A A84C G117U,-6.14
2,G47U G60U U116C U131A U132C,-1.54
3,U30G G69C A108C,-0.59
4,G45U G77C,-1.17
5,G60C C94G U116C C123U,-3.28
6,G113A U126C,-0.83
7,U14G A50C C56G C89U A95G,-3.5
8,C12U A74C C79U A121U,1.34
9,C11A C28U G36A U81A C85U G120A,-4.25
10,A18U C79G G110A,-6
11,G45U C88A U130G,-0.102
12,C20G C86A,-4.53
13,G10U C13U G48A G61A A83U C98U G117A,-2.09
14,C72U G77C,-1.07
15,A41G C49G U59G,-1.99
16,C73U G128U,-1.62
17,A18U A41U C56U C72A U133A,-3.75
18,C12A U109A,-5.14
19,G52A C104U,0.136
20,G17C C49A,-4.92
21,C8U U38G C72A U92A C115G,-5.69

row,Variant,polymerase ribozyme fitness (log ratio)
1,A27U G47C,-4.91
2,C11G A46C,-1.01
3,G44C C56U,-0.735
4,C56A C70A,-2.72
5,C8G C15U G39A C62G,-2.54
6,C3A U87A C94U U106G C115U G120C,-5.04
7,G69U U112G U125A,1.09
8,C49U U54C G117U G128A,-5.68
9,U87A A108G C114A U116A,-7.38
10,C70G C102A,-5.59
11,C62G C114U U116A,-5.69
12,C40U G60A A95U G117C A121C,-6.15
13,C22G U87G G113U A119G G127C,-4.58
14,C15G C53U C85G,-4.35
15,C73G A108C A118U C123G,-4.86
16,C12U C49A C62A C70A U78A,-4.12
17,A66U U130A,-1.42
18,G47A C62A,-1.78
19,C12A C123U,0.76
20,C88G U129A,-3.06
